Source: patent US20070105771A1 (Y S THERAPEUTICS, published 2007)

Tests used:
Assay in all cases: peptide microarray
[1] = target: T1, human CD26-derived 13 mer peptide 6 (human)
T1 peptide: YSLRWISDHEYLY
Description: (§1) The overnight incubation was followed by three washings with each of PBS buffer pH 7.5 and water. The microarrays were then scanned using ArrayWorx-Microarray Scanner.
(§2) The SPOT recognition software package ArrayPro was used for data analysis. The mean of signal intensities from 3 identical subarrays on each microarray image was used for data evaluation.

[2] = target: T2, human CD26-derived 13 mer peptide 112 (human)
T2 peptide: VVNTDSLSSVTNA
Description: as §1, §2

[3] = target: T3, human CD26-derived 13 mer peptide 2 (human)
T3 peptide: KNTYRLKLYSLRW
Description: as §1, §2

[4] = target: T4, human CD26-derived 13 mer peptide 97 (human)
T4 peptide: FYSDESLQYPKTV
Description: as §1, §2

[5] = target: T5, human CD26-derived 13 mer peptide 130 (human)
T5 peptide: ATQERISLQWLRR
Description: as §1, §2

[6] = target: T6, human CD26-derived 13 mer peptide 62 (human)
T6 peptide: NDIYVKIEPNLPS
Description: as §1, §2

[7] = target: T7, human CD26-derived 13 mer peptide 37 (human)
T7 peptide: YVKQWRHSYTASY
Description: as §1, §2

[8] = target: T8, human CD26-derived 13 mer peptide 78 (human)
T8 construct: also called VYEEEVFSAYSAL
T8 peptide: VYEEEVFSAYSAL
Description: as §1, §2

[9] = target: T9, human CD26-derived 13 mer peptide 115 (human)
T9 peptide: LSSVTNATSIQIT
Description: as §1, §2

[10] = target: T10, human CD26-derived 13 mer peptide 7 (human)
T10 peptide: LRWISDHEYLYKQ
Description: as §1, §2

[11] = target: T11, human CD26-derived 13 mer peptide 95 (human)
T11 peptide: IEYSFYSDESLQY
Description: as §1, §2

[12] = target: T12, human CD26-derived 13 mer peptide 105 (human)
T12 peptide: YPKAGAVNPTVKF
Description: as §1, §2

[13] = target: T13, human CD26-derived 13 mer peptide 52 (human)
T13 peptide: NNTQWVTWSPVGH
Description: as §1, §2

[14] = target: T14, human CD26-derived 13 mer peptide 54 (human)
T14 peptide: WVTWSPVGHKLAY
Description: as §1, §2

[15] = target: T15, human CD26-derived 13 mer peptide 20 (human)
T15 peptide: SSVFLENSTFDEF
Description: as §1, §2

[16] = target: T16, human CD26-derived 13 mer peptide 93 (human)
T16 peptide: EVPLIEYSFYSDE
Description: as §1, §2

[17] = target: T17, human CD26-derived 13 mer peptide 28 (human)
T17 peptide: INDYSISPDGQFI
Description: as §1, §2

[18] = target: T18, human CD26-derived 13 mer peptide 104 (human)
T18 peptide: VPYPKAGAVNPTV
Description: as §1, §2

[19] = target: T19, human CD26-derived 13 mer peptide 5 (human)
T19 peptide: KLYSLRWISDHEY
Description: as §1, §2

[20] = target: T20, human CD26-derived 13 mer peptide 57 (human)
T20 peptide: VGHKLAYVWNNDI
Description: as §1, §2

[21] = target: T21, human CD26-derived 13 mer peptide 50 (human)
T21 peptide: ERIPNNTQWVTWS
Description: as §1, §2

[22] = target: T22, human CD26-derived 13 mer peptide 81 (human)
T22 peptide: FSAYSALWWSPNG
Description: as §1, §2

[23] = target: T23, human CD26-derived 13 mer peptide 106 (human)
T23 peptide: KAGAVNPTVKFFV
Description: as §1, §2

[24] = target: T24, human CD26-derived 13 mer peptide 27 (human)
T24 peptide: HSINDYSISPDGQ
Description: as §1, §2

[25] = target: T25, human CD26-derived 13 mer peptide 24 (human)
T25 peptide: TFDEFGHSINDYS
Description: as §1, §2

[26] = target: T26, human CD26-derived 13 mer peptide 70 (human)
T26 peptide: TWTGKEDIIYNGI
Description: as §1, §2

[27] = target: T27, human CD26-derived 13 mer peptide 36 (human)
T27 peptide: YNYVKQWRHSYTA
Description: as §1, §2

[28] = target: T28, human CD26-derived 13 mer peptide 45 (human)
T28 peptide: DLNKRQLITEERI
Description: as §1, §2

[29] = target: T29, human CD26-derived 13 mer peptide 14 (human)
T29 peptide: NNILVFNAEYGNS
Description: as §1, §2

[30] = target: T30, human CD26-derived 13 mer peptide 96 (human)
T30 peptide: YSFYSDESLQYPK
Description: as §1, §2

[31] = target: T31, human CD26-derived 13 mer peptide 89 (human)
T31 peptide: AYAQFNDTEVPLI
Description: as §1, §2

[32] = target: T32, human CD26-derived 13 mer peptide 23 (human)
T32 peptide: NSTFDEFGHSIND
Description: as §1, §2

[33] = target: T33, human CD26-derived 13 mer peptide 68 (human)
T33 peptide: SYRITWTGKEDII
Description: as §1, §2

[34] = target: T34, human CD26-derived 13 mer peptide 30 (human)
T34 peptide: SISPDGQFILLEY
Description: as §1, §2

[35] = target: T35, human CD26-derived 13 mer peptide 42 (human)
T35 peptide: ASYDIYDLNKRQL
Description: as §1, §2

[36] = target: T36, human CD26-derived 13 mer peptide 79 (human)
T36 peptide: EEEVFSAYSALWW
Description: as §1, §2

[37] = target: T37, human CD26-derived 13 mer peptide 1 (human)
T37 peptide: YLKNTYRLKLYSL
Description: as §1, §2

[38] = target: T38, human CD26-derived 13 mer peptide 40 (human)
T38 peptide: HSYTASYDIYDLN
Description: as §1, §2

[39] = target: T39, human CD26-derived 13 mer peptide 72 (human)
T39 peptide: KEDIIYNGITDWV
Description: as §1, §2

[40] = target: T40, human CD26-derived 13 mer peptide 118 (human)
T40 peptide: ATSIQITAPASML
Description: as §1, §2

[41] = target: T41, human CD26-derived 13 mer peptide 99 (human)
T41 peptide: ESLQYPKTVRVPY
Description: as §1, §2

[42] = target: T42, human CD26-derived 13 mer peptide 84 (human)
T42 peptide: LWWSPNGTFLAYA
Description: as §1, §2

B1: rhuMAb 411 (antibody, human IgG1, kappa, V domains shown)
VH: EVQLVESGAGVKQPGGTLRLTCTASGFSLTTYGVHWVRQAPGKGLEWVGVIWGDGRTDYDAAFMSRVTISKDTSKSTVYLQMNSLRAEDTAVYYCMRNRHDWFDYWGQGTTVTVSS
VL: DILLTQSPSSLSATPGERATITCRASQGIRNNLNWYQQKPGQAPRLLIYYSSNLQSGVPSRFSGSGSGTDFTLTISRLQPEDVAAYYCQQSIKLPFTFGSGTKVEIKR
notes: also called X411
Mean Signal Value [1]: 97.5 | Mean Signal Value [2]: 0 | Mean Signal Value [3]: 16.5 | Mean Signal Value [4]: 0.0144 | Mean Signal Value [5]: 4.3 | Mean Signal Value [6]: 0.00481 | Mean Signal Value [7]: 98.2 | Mean Signal Value [8]: 7.86 | Mean Signal Value [9]: 0.0673 | Mean Signal Value [10]: 20.6 | Mean Signal Value [11]: 6.14 | Mean Signal Value [12]: 0 | Mean Signal Value [13]: 0.12 | Mean Signal Value [14]: 13 | Mean Signal Value [15]: 0.0577 | Mean Signal Value [16]: 0.269 | Mean Signal Value [17]: 0.221 | Mean Signal Value [18]: 0.00481 | Mean Signal Value [19]: 43.1 | Mean Signal Value [20]: 9.67 | Mean Signal Value [21]: 34.6 | Mean Signal Value [22]: 35.4 | Mean Signal Value [23]: 0.245 | Mean Signal Value [24]: 0.00481 | Mean Signal Value [25]: 0.00962 | Mean Signal Value [26]: 1 | Mean Signal Value [27]: 28.2 | Mean Signal Value [28]: 0 | Mean Signal Value [29]: 0.00962 | Mean Signal Value [30]: 0.0144 | Mean Signal Value [31]: 0 | Mean Signal Value [32]: 0.00481 | Mean Signal Value [33]: 0 | Mean Signal Value [34]: 6.26 | Mean Signal Value [35]: 0 | Mean Signal Value [36]: 96.4 | Mean Signal Value [37]: 3.5 | Mean Signal Value [38]: 32.2 | Mean Signal Value [39]: 10.1 | Mean Signal Value [40]: 0 | Mean Signal Value [41]: 0.0865 | Mean Signal Value [42]: 17.2
